The subject of series [1] is HeLa Kyoto. Nature of the series: solubility in G1/S (NP-40 vs SDS abundance) (log2 ratio); higher = more soluble. The settings on record: cell cycle stage: G1/S.
Series [2] has as its system HeLa Kyoto. Nature of the series: solubility change mitosis vs G1/S (difference of NP-40 vs SDS log2 ratios) (log2 ratio difference); higher = more soluble in mitosis.
Series [3] has as its system HeLa Kyoto. Nature of the series: melting temperature (median over replicates), in situ; higher = more thermally stable.
Series [4] concerns HeLa Kyoto. Nature of the series: thermal stability score vs G1/S (z-score of summed log2 fold changes over temperatures); higher = more thermally stable than in G1/S.
Where [5] appears, read: cell cycle stage: early G1 (4.5 h after nocodazole release).
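Throughout, for melting temperature (median over replicates), in situ: HeLa Kyoto cells synchronized by double thymidine or nocodazole block, proteins quantified by TMT10plex mass spectrometry, three independent biological replicates.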
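Throughout, for solubility change mitosis vs G1/S (difference of NP-40 vs SDS log2 ratios): synchronized HeLa Kyoto cells (double thymidine block for G1/S, nocodazole release for mitosis), protein amounts in NP-40 versus SDS lysates quantified by mass spectrometry, three biological replicates.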
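Throughout, for solubility in G1/S (NP-40 vs SDS abundance): HeLa Kyoto cells arrested at G1/S by double thymidine block, proteins quantified by TMT10plex mass spectrometry in mild NP-40 versus SDS extracts, three biological replicates.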
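Throughout, for thermal stability score vs G1/S (z-score of summed log2 fold changes over temperatures): synchronized HeLa Kyoto cells, proteins quantified by TMT10plex mass spectrometry, three biological replicates, mitosis taken 0.5 h after nocodazole release, G1/S directly after double thymidine block.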

Turning to “MSKYKLIMLRHGEGAWNKENRFCSWVDQKLNSEGMEEARNCGKQLKALNFEFDLVFTSVLNRSIHTAWLILEELGQEWVPVESSWRLNERHYGALIGLNREQMALNHGEEQVRLWRRSYNVTPPPIEESHPYYQEIYNDRRYKVCDVPLDQLPRSESLKDVLERLLPYWNERIAPEVLRGKTILISAHGNSSRALLKHLEGISDEDIINITLPTGVPILLELDENLRAVGPHQFLGDQEAIQAAIKKVEDQGKVKQAKK [BPGM]”, in series [1], the “solubility in G1/S (log2)” value worked out at 0.328. Also, in series [2], the “solubility change mitosis (log2)” value was -0.0036. Moreover, the melting temperature in series [3] (cell cycle stage: G1/S) worked out at 53.1 °C; in series [3] (cell cycle stage: mitosis), 55.1 °C. In addition, the figures for the thermal stability score in series [4] (setting [5]) and in series [4] (cell cycle stage: mitosis) were 1.51 and 0.348, respectively.

For “MSLEDPFFVVRGEVQKAVNTARGLYQRWCELLQESAAVGREELDWTTNELRNGLRSIEWDLEDLEETIGIVEANPGKFKLPAGDLQERKVFVERMREAVQEMKDHMVSPTAVAFLERNNREILAGKPAAQKSPSDLLDASAVSATSRYIEEQQATQQLIMDEQDQQLEMVSGSIQVLKHMSGRVGEELDEQGIMLDAFAQEMDHTQSRMDGVLRKLAKVSHMTSDRRQWCAIAVLVGVLLLVLILLFSL [STX10]”, the “solubility in G1/S (log2)” value in series [1] was -0.293. For the same sequence, the “solubility change mitosis (log2)” value in series [2] was -0.107. Besides, the melting temperature in series [3] (cell cycle stage: G1/S) stood at 52.1 °C; in series [3] (cell cycle stage: mitosis), 51.6 °C. For the same sequence, the results for the thermal stability score in series [4] (setting [5]) and in series [4] (cell cycle stage: mitosis) were 2.01 and 0.0715, respectively.

On to “MSLFGTTSGFGTSGTSMFGSATTDNHNPMKDIEVTSSPDDSIGCLSFSPPTLPGNFLIAGSWANDVRCWEVQDSGQTIPKAQQMHTGPVLDVCWSDDGSKVFTASCDKTAKMWDLSSNQAIQIAQHDAPVKTIHWIKAPNYSCVMTGSWDKTLKFWDTRSSNPMMVLQLPERCYCADVIYPMAVVATAERGLIVYQLENQPSEFRRIESPLKHQHRCVAIFKDKQNKPTGFALGSIEGRVAIHYINPPNPAKDNFTFKCHRSNGTNTSAPQDIYAVNGIAFHPVHGTLATVGSDGRFSFWDKDARTKLKTSEQLDQPISACCFNHNGNIFAYASSYDWSKGHEFYNPQKKNYIFLRNAAEELKPRNKK [RAE1]”, for which the “solubility in G1/S (log2)” value in series [1] is -0.0787. Further, the “solubility change mitosis (log2)” value in series [2] amounted to 0.128. The figures for the melting temperature in series [3] (cell cycle stage: G1/S) and in series [3] (cell cycle stage: mitosis) were 49.8 °C and 49.1 °C, respectively. Moreover, the thermal stability score is -1.34 in series [4] (setting [5]) and -0.473 in series [4] (cell cycle stage: mitosis).

As for “MSLGRLCRLLKPALLCGALAAPGLAGTMCASRDDWRCARSMHEFSAKDIDGHMVNLDKYRGFVCIVTNVASQUGKTEVNYTQLVDLHARYAECGLRILAFPCNQFGKQEPGSNEEIKEFAAGYNVKFDMFSKICVNGDDAHPLWKWMKIQPKGKGILGNAIKWNFTKFLIDKNGCVVKRYGPMEEPLVIEKDLPHYF [GPX4]”, the “solubility in G1/S (log2)” value in series [1] came to 0.136. Moreover, the “solubility change mitosis (log2)” value in series [2] is -0.141. Moreover, the melting temperature in series [3] (cell cycle stage: G1/S) and in series [3] (cell cycle stage: mitosis) was 56.3 °C each time. In addition, the values for the thermal stability score in series [4] (setting [5]) and in series [4] (cell cycle stage: mitosis) were -2.51 and -2.1, respectively.

Take “MSLHGKRKEIYKYEAPWTVYAMNWSVRPDKRFRLALGSFVEEYNNKVQLVGLDEESSEFICRNTFDHPYPTTKLMWIPDTKGVYPDLLATSGDYLRVWRVGETETRLECLLNNNKNSDFCAPLTSFDWNEVDPYLLGTSSIDTTCTIWGLETGQVLGRVNLVSGHVKTQLIAHDKEVYDIAFSRAGGGRDMFASVGADGSVRMFDLRHLEHSTIIYEDPQHHPLLRLCWNKQDPNYLATMAMDGMEVVILDVRVPCTPVARLNNHRACVNGIAWAPHSSCHICTAADDHQALIWDIQQMPRAIEDPILAYTAEGEINNVQWASTQPDWIAICYNNCLEILRV [DCAF7]”: the “solubility in G1/S (log2)” value in series [1] is -0.0563. In series [2], the “solubility change mitosis (log2)” value is -0.147. In addition, the melting temperature came to 52.2 °C in series [3] (cell cycle stage: G1/S) and 52.5 °C in series [3] (cell cycle stage: mitosis). Besides, the thermal stability score in series [4] (setting [5]) was 0.282; in series [4] (cell cycle stage: mitosis), -1.1.

Consider “MSLICSISNEVPEHPCVSPVSNHVYERRLIEKYIAENGTDPINNQPLSEEQLIDIKVAHPIRPKPPSATSIPAILKALQDEWDAVMLHSFTLRQQLQTTRQELSHALYQHDAACRVIARLTKEVTAAREALATLKPQAGLIVPQAVPSSQPSVVGAGEPMDLGELVGMTPEIIQKLQDKATVLTTERKKRGKTVPEELVKPEELSKYRQVASHVGLHSASIPGILALDLCPSDTNKILTGGADKNVVVFDKSSEQILATLKGHTKKVTSVVFHPSQDLVFSASPDATIRIWSVPNASCVQVVRAHESAVTGLSLHATGDYLLSSSDDQYWAFSDIQTGRVLTKVTDETSGCSLTCAQFHPDGLIFGTGTMDSQIKIWDLKERTNVANFPGHSGPITSIAFSENGYYLATAADDSSVKLWDLRKLKNFKTLQLDNNFEVKSLIFDQSGTYLALGGTDVQIYICKQWTEILHFTEHSGLTTGVAFGHHAKFIASTGMDRSLKFYSL [PRPF19]”, for which the “solubility in G1/S (log2)” value in series [1] was -0.473. Moreover, the “solubility change mitosis (log2)” value in series [2] was found to be 0.214. Moreover, the results for the melting temperature in series [3] (cell cycle stage: G1/S) and in series [3] (cell cycle stage: mitosis) were 56.5 °C and 54 °C, respectively. Also, the thermal stability score in series [4] (setting [5]) is -0.506; in series [4] (cell cycle stage: mitosis), -3.39.
